Results as given in PMC9561612.

Target: CXCR4 receptor (human (endogenous in MDA-MB-231)) (UniProt P61073)
Chain of UniProt P61073 (P61073 whole entry): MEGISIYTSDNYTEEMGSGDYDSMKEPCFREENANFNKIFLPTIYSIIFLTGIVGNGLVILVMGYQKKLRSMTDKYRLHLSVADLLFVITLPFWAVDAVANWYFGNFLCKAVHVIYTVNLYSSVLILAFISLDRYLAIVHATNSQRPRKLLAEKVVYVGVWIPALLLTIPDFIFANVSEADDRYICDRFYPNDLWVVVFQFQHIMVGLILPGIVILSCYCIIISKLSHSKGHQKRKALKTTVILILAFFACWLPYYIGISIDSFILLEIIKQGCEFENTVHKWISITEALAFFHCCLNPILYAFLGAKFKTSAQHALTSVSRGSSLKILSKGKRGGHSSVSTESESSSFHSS

- cytoplasmic Ca2+ release in MDA-MB-231 cells (Fura-2), dose response to OHD (4–12), EC50: 1.3 nM
Substance: OHD_(4–12) (Obligate HeteroDimer CXCL4–CXCL12) (from UniProt P48061-2 22-89) (complex)
